Several values for one entry are separate records, joined by “and”; a condition that tells them apart may be missing. Equal values may be shown once.
Key:
[1] = system: HIV-1 isolates of study subjects; assay: PhenoSense HIV Entry assay on viruses of Phase 1b subjects; format: cell-based
Description: Plasma HIV-1 RNA levels were determined with the Cobas Amplicor HIV-1 Monitor Test (Version 1.5; Roche Diagnostics, Branchburg, N.J.). Samples <400 copies/mL were re-analyzed with the Ultrasensitive Monitor Method. Co-receptor tropism was determined at screening and Days 1, 8, 29 and 59 (Trofile™ assay, Monogram Biosciences, Inc., South San Francisco, Calif.). Viral susceptibility was determined on Days 1 and 59 with the Phenosense™ HIV Entry assay. […] Maximum percent inhibitions were determined from the plateaus of the inhibition curves. The reference virus was HIV-192HT594, a low-passage dual-tropic isolate. GeneSeq™ (Monogram Biosciences) was used to assess HIV-1 subtype and genotypic susceptibility to protease and reverse transcriptase inhibitors.

[2] = system: HIV-1JR-FL envelope-mediated membrane fusion; assay: microbe, parasite or virus in culture; format: cell-based; conditions: inhibitor alone, experiment depicted in FIG. 15A; read-out: IC90
[3] = Phase 1b clinical study: safety, anti-PRO 140 antibodies, plasma RANTES
Source text: Subjects were ≥18 years of age with plasma HIV-1 RNA ≥5,000 copies/mL, R5-tropic HIV-1 only, CD4^+ cells ≥250/μL with no documented nadir ≤200/μL and no antiretroviral therapy for at least 3 months. Major exclusion criteria included pregnancy, history of AIDS-defining illness, the presence of X4-tropic HIV-1, and acute or symptomatic viral hepatitis within the prior 6 months.
Evaluations of clinical subjects included physical examinations, 12-lead electrocardiograms, vital signs, concomintant medications, and adverse events reporting. Clinical laboratory tests evaluated serum chemistries, hematology and urinalysis.
Samples below the LLOQ were assigned a value of zero. PK metrics were estimated using non-compartmental methods. The area under the serum concentration-time curve from time zero to infinity (AUC) was calculated using the linear trapezoidal rule. The terminal serum half-life was calculated by regression of the terminal portion of the concentration-time curve. […] Sera were tested at a 1:10 dilution initially, and positive samples were serially diluted for titer analysis.
CCR5^+ and CD4^+ lymphocytes were measured by flow cytometry. […] CTC5-PE data were used to determine the absolute number of circulating CCR5^+ lymphocytes pre- and post-treatment. RANTES was measured in platelet-depleted plasma using a validated ELISA.

B1: PRO 140: humanized IgG4,κ anti-CCR5 mAb, humanized version of the murine mAb PA14 (antibody, chains of the INN, looked up, V domains shown)
VH: EVQLVESGGGLVKPGGSLRLSCAASGYTFSNYWIGWVRQAPGKGLEWIGDIYPGGNYIRNNEKFKDKTTLSADTSKNTAYLQMNSLKTEDTAVYYCGSSFGSNYVFAWFTYWGQGTLVTVSS
VL: DIVMTQSPLSLPVTPGEPASISCRSSQRLLSSYGHTYLHWYLQKPGQSPQLLIYEVSNRFSGVPDRFSGSGSGTDFTLKISRVEAEDVGVYYCSQSTHVPLTFGQGTKVEIK
change in viral susceptibility, baseline to day 59 (in words) ([1]; IC50 or Fold Change): No change from baseline to day 59 | Mean Maximum Percent Inhibition (MPI) ([1]; baseline): 99% and 98.9±1.5% | variation of baseline rIC50 values across the 39 subjects ([1]; baseline): 6.2 fold | Mean rIC50 (IC50 test isolate / IC50 reference virus) ([1]; baseline, viruses of PRO 140-treated subjects): 2.0 (range: 0.83-5.1) | Mean Maximum Percent Inhibition (MPI) ([1]; post-treatment (end of study)): 99% and 99.0±1.0% | IC90 [2]: 111 nM | serious adverse events / dose-limiting toxicity ([3]; human, in vivo): No drug-related serious adverse events or dose-limiting toxicity was reported | effect on QTc intervals / electrocardiogram ([3]; single IV 0.5, 2 and 5 mg/kg): no clinically relevant drug-related effect on QTc intervals

From patent US10500274B2, “Methods for reducing viral load in HIV-1 infected patients” (CytoDyn Inc., priority 2008, dated 2019)
